Here are results for 2 substances from patent publication US20180298051A1.

Holding throughout (experiment): cell-based or functional assay
Assay [1] has as its target C-terminal HA tagged human Leptin receptor on LepR SIE-Bla cells (human) (UniProt P48357).
Assay [2] addresses human LepR on Baf3 LepR cells (human) (UniProt P48357).
In assay [3] the target is human FSHR on FSHR CRE-Bla cells (human) (UniProt P23945).
human FSHR on FSHR CRE-Bla cells (human), sequence (P23945 18-695): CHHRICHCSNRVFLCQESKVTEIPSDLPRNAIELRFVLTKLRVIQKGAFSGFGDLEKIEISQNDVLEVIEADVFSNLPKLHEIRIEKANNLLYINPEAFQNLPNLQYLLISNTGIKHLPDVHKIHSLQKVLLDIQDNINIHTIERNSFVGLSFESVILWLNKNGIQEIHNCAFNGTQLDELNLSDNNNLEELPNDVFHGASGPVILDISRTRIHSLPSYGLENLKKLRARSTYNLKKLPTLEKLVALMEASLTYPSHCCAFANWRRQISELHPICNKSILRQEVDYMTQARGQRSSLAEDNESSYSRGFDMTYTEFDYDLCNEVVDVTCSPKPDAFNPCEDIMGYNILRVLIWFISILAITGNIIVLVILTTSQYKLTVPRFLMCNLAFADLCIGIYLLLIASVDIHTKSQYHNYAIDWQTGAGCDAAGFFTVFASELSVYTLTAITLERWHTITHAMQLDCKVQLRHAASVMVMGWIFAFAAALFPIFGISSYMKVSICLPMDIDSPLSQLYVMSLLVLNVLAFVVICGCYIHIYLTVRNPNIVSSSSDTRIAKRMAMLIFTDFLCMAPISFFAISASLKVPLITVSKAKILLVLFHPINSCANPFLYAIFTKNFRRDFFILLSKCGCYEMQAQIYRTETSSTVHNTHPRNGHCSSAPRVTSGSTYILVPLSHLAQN

C-terminal HA tagged human Leptin receptor on LepR SIE-Bla cells (human), sequence (P48357 22-1165): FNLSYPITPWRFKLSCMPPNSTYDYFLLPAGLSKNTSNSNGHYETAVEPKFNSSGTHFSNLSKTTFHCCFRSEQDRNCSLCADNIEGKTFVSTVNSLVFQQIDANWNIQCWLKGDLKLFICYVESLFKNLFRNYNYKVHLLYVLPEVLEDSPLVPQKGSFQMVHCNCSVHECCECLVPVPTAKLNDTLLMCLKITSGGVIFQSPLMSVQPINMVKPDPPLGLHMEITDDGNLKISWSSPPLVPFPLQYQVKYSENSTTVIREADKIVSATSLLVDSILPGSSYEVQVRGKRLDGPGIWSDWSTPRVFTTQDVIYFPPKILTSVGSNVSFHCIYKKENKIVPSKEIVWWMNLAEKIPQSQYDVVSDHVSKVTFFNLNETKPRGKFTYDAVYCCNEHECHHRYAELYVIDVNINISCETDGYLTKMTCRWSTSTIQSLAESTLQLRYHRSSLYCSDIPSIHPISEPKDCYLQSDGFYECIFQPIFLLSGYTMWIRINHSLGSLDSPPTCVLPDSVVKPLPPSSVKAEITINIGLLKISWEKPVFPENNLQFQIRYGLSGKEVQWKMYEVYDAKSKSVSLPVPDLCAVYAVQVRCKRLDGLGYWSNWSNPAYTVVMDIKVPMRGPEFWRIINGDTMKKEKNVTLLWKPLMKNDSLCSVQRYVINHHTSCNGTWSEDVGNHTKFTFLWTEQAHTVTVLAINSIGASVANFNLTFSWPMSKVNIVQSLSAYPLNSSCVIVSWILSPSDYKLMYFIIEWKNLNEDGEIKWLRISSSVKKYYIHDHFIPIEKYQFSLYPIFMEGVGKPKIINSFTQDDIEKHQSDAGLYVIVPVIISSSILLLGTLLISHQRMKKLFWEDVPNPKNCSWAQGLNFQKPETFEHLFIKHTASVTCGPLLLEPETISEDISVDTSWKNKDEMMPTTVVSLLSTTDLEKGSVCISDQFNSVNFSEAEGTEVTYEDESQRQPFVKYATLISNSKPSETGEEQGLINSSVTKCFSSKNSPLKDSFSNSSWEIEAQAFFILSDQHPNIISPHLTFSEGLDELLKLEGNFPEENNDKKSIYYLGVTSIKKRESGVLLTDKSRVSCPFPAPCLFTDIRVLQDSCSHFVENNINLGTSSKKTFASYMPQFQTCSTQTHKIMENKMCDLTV
human LepR on Baf3 LepR cells (human), sequence (P48357 22-1165): as above

On to “recombinant human Leptin protein (from UniProt P41159 22-167) (ligand)”, for which, in assay [1], the EC50, FRET assay using the beta-lactamase-based LepR SIE-Bla cell line turned out to be 313 pM and the response ratio in a fluorescence resonance energy transfer (FRET) assay, LepR SIE-Bla cells stood at 8.5. In assay [2], the EC50, proliferation assay using the Baf3 LepR cell line came out at 310 pM.
In turn, “single chain FSH (from UniProt P01225 19-129; P01215 25-116) (ligand)” yielded an EC50, FRET assay using the beta-lactamase-based FSHR CRE-Bla cell line in assay [3] of 5.7 pM.
